For the assay, the target named is wild type human norepinephrine transporter (human) (UniProt P23975). As to the kind of experiment: cell-based or functional assay.

The substance “human norepinephrine transporter A457P mutant (from UniProt P23975 1-617)” gave a [3H]NE uptake on cotransfection (% of wt alone) of 59.

(Values after patent US20030170875A1.)
